Experimental data from patent US20130331550A1 (TECHNISCHE UNIVERSITAET MUENCHEN, published 2013).

Target: the molecule itself
Experiment: analytical size exclusion chromatography and analytical ultracentrifugation (sedimentation equilibrium); self-association (dimer) not seen
Procedure: Bovine serum albumin (66 kDa, Vᵣ=9.861 ml), carbonic anhydrase (29 kDa, Vᵣ=12.35 ml), myoglobin (17.05 kDa, Vᵣ=13.244 ml), cytochrome C (12.4 kDa, Vᵣ=14.11 ml), and aprotinin (6.5 kDa, Vᵣ=16.35 ml) were used as protein size standards for calibration of the column while the void volume was determined with blue dextran (V₀=8.08 ml).
Sedimentation equilibrium experiments were performed using an XL-I analytical ultracentrifuge and a Ti-60 rotor equipped with a UV/Vis as well as interference detector (Beckman, Fullerton, Calif.). An 0.8 mg/ml solution of the purified recombinant Blc in 150 mM NaCl, 1 mM EDTA, 100 M Tris/HCl pH 8.0 was applied to six-sector 12 mm path length cells. The samples were centrifuged at 25000 rpm for 72 h at 4° C., until equilibrium was reached, whereby the protein gradient was measured by UV absorption at 280 nm.

B1: recombinant Blc (Escherichia coli bacterial lipocalin, Cys1Ala/Cys113Ser, C-terminal Strep-tag II, as encoded on pBlc2) (other)
chain: ASSPTPPRGVTVVNNFDAKRYLGTWYEIARFDHRFERGLEKVTATYSLRDDGGLNVINKGYNPDRGMWQQSEGKAYFTGAPTRAALKVSFFGPFYGGYNVIALDREYRHALVSGPDRDYLWILSRTPTISDEVKQEMLAVATREGFDVSKFIWVQQPGSAWSHPQFEK
notes: The construct has 168 residues (159 + 9 tag residues)
binding result: no binding (tested: about 40 µM)
